# Data taken from patent publication US20150344540A1, “NOVEL GLP-1 RECEPTOR AGONISTS WITH CHOLESTEROL EFFLUX ACTIVITY” (NOVO NORDISK A/S, priority 2012, published 2015).
# Where no end group is shown, it is not given here. [ ]: non-standard residue; d: D form. Aib = CC(C)(N)C(=O)O
# Molecular target: human GLP-1 receptor (human, UniProt P43220)
# Experiment: cell-based or functional assay
Binder,"CRE luciferase EC50, 0% HSA","CRE luciferase EC50, 1% HSA"
"H[Aib]EGTFTSDVSSYLEGEAVKEFIAWLVEKVKEKL-NH2 (N-terminus assumed; SMILES CC[C@H](C)[C@H](NC(=O)[C@H](Cc1ccccc1)NC(=O)[C@H](CCC(=O)O)NC(=O)[C@H](CCCCN)NC(=O)[C@@H](NC(=O)[C@H](C)NC(=O)[C@H](CCC(=O)O)NC(=O)CNC(=O)[C@H](CCC(=O)O)NC(=O)[C@H](CC(C)C)NC(=O)[C@H](Cc1ccc(O)cc1)NC(=O)[C@H](CO)NC(=O)[C@H](CO)NC(=O)[C@@H](NC(=O)[C@H](CC(=O)O)NC(=O)[C@H](CO)NC(=O)[C@@H](NC(=O)[C@H](Cc1ccccc1)NC(=O)[C@@H](NC(=O)CNC(=O)[C@H](CCC(=O)O)NC(=O)C(C)(C)NC(=O)[C@@H](N)Cc1c[nH]cn1)[C@@H](C)O)[C@@H](C)O)C(C)C)C(C)C)C(=O)N[C@@H](C)C(=O)N[C@@H](Cc1c[nH]c2ccccc12)C(=O)N[C@@H](CC(C)C)C(=O)N[C@H](C(=O)N[C@@H](CCC(=O)O)C(=O)N[C@@H](CCCCN)C(=O)N[C@H](C(=O)N[C@@H](CCCCN)C(=O)N[C@@H](CCC(=O)O)C(=O)N[C@@H](CCCCN)C(=O)N[C@@H](CC(C)C)C(N)=O)C(C)C)C(C)C) [[Aib8,Glu23,Val25,Glu34,Lys35,Val36,Lys37]-GLP-1-(7-37)-peptidyl-Glu-Lys-Leu amide]",59 pM,29 pM
"H[Aib]EGTFTSDVSSYLEGEAVKEFIAWLVEKGKEFL-NH2 (N-terminus assumed; SMILES CC[C@H](C)[C@H](NC(=O)[C@H](Cc1ccccc1)NC(=O)[C@H](CCC(=O)O)NC(=O)[C@H](CCCCN)NC(=O)[C@@H](NC(=O)[C@H](C)NC(=O)[C@H](CCC(=O)O)NC(=O)CNC(=O)[C@H](CCC(=O)O)NC(=O)[C@H](CC(C)C)NC(=O)[C@H](Cc1ccc(O)cc1)NC(=O)[C@H](CO)NC(=O)[C@H](CO)NC(=O)[C@@H](NC(=O)[C@H](CC(=O)O)NC(=O)[C@H](CO)NC(=O)[C@@H](NC(=O)[C@H](Cc1ccccc1)NC(=O)[C@@H](NC(=O)CNC(=O)[C@H](CCC(=O)O)NC(=O)C(C)(C)NC(=O)[C@@H](N)Cc1c[nH]cn1)[C@@H](C)O)[C@@H](C)O)C(C)C)C(C)C)C(=O)N[C@@H](C)C(=O)N[C@@H](Cc1c[nH]c2ccccc12)C(=O)N[C@@H](CC(C)C)C(=O)N[C@H](C(=O)N[C@@H](CCC(=O)O)C(=O)N[C@@H](CCCCN)C(=O)NCC(=O)N[C@@H](CCCCN)C(=O)N[C@@H](CCC(=O)O)C(=O)N[C@@H](Cc1ccccc1)C(=O)N[C@@H](CC(C)C)C(N)=O)C(C)C) [[Aib8,Glu23,Val25,Glu34,Lys35,Gly36,Lys37]-GLP-1-(7-37)-peptidyl-Glu-Phe-Leu amide]",34 pM,7 pM
"H[Aib]EGTFTSDVSSYLEGEAVKEFIAWLVKK[Aib]KEFL-NH2 (N-terminus assumed; SMILES CC[C@H](C)[C@H](NC(=O)[C@H](Cc1ccccc1)NC(=O)[C@H](CCC(=O)O)NC(=O)[C@H](CCCCN)NC(=O)[C@@H](NC(=O)[C@H](C)NC(=O)[C@H](CCC(=O)O)NC(=O)CNC(=O)[C@H](CCC(=O)O)NC(=O)[C@H](CC(C)C)NC(=O)[C@H](Cc1ccc(O)cc1)NC(=O)[C@H](CO)NC(=O)[C@H](CO)NC(=O)[C@@H](NC(=O)[C@H](CC(=O)O)NC(=O)[C@H](CO)NC(=O)[C@@H](NC(=O)[C@H](Cc1ccccc1)NC(=O)[C@@H](NC(=O)CNC(=O)[C@H](CCC(=O)O)NC(=O)C(C)(C)NC(=O)[C@@H](N)Cc1c[nH]cn1)[C@@H](C)O)[C@@H](C)O)C(C)C)C(C)C)C(=O)N[C@@H](C)C(=O)N[C@@H](Cc1c[nH]c2ccccc12)C(=O)N[C@@H](CC(C)C)C(=O)N[C@H](C(=O)N[C@@H](CCCCN)C(=O)N[C@@H](CCCCN)C(=O)NC(C)(C)C(=O)N[C@@H](CCCCN)C(=O)N[C@@H](CCC(=O)O)C(=O)N[C@@H](Cc1ccccc1)C(=O)N[C@@H](CC(C)C)C(N)=O)C(C)C) [[Aib8,Glu23,Val25,Lys35,Aib36,Lys37]-GLP-1-(7-37)-peptidyl-Glu-Phe-Leu amide]",921 pM,276 pM
"H[Aib]EGTFTSDVSSYLEGEAVKEFIAWLVEKVKDFL-NH2 (N-terminus assumed; SMILES CC[C@H](C)[C@H](NC(=O)[C@H](Cc1ccccc1)NC(=O)[C@H](CCC(=O)O)NC(=O)[C@H](CCCCN)NC(=O)[C@@H](NC(=O)[C@H](C)NC(=O)[C@H](CCC(=O)O)NC(=O)CNC(=O)[C@H](CCC(=O)O)NC(=O)[C@H](CC(C)C)NC(=O)[C@H](Cc1ccc(O)cc1)NC(=O)[C@H](CO)NC(=O)[C@H](CO)NC(=O)[C@@H](NC(=O)[C@H](CC(=O)O)NC(=O)[C@H](CO)NC(=O)[C@@H](NC(=O)[C@H](Cc1ccccc1)NC(=O)[C@@H](NC(=O)CNC(=O)[C@H](CCC(=O)O)NC(=O)C(C)(C)NC(=O)[C@@H](N)Cc1c[nH]cn1)[C@@H](C)O)[C@@H](C)O)C(C)C)C(C)C)C(=O)N[C@@H](C)C(=O)N[C@@H](Cc1c[nH]c2ccccc12)C(=O)N[C@@H](CC(C)C)C(=O)N[C@H](C(=O)N[C@@H](CCC(=O)O)C(=O)N[C@@H](CCCCN)C(=O)N[C@H](C(=O)N[C@@H](CCCCN)C(=O)N[C@@H](CC(=O)O)C(=O)N[C@@H](Cc1ccccc1)C(=O)N[C@@H](CC(C)C)C(N)=O)C(C)C)C(C)C) [[Aib8,Glu23,Val25,Glu34,Lys35,Val36,Lys37]-GLP-1-(7-37)-peptidyl-Asp-Phe-Leu amide]",323 pM,128 pM
"H[Aib]EGTFTSDVSSYLEGEAVKEFIAWLVEKVKGFL-NH2 (N-terminus assumed; SMILES CC[C@H](C)[C@H](NC(=O)[C@H](Cc1ccccc1)NC(=O)[C@H](CCC(=O)O)NC(=O)[C@H](CCCCN)NC(=O)[C@@H](NC(=O)[C@H](C)NC(=O)[C@H](CCC(=O)O)NC(=O)CNC(=O)[C@H](CCC(=O)O)NC(=O)[C@H](CC(C)C)NC(=O)[C@H](Cc1ccc(O)cc1)NC(=O)[C@H](CO)NC(=O)[C@H](CO)NC(=O)[C@@H](NC(=O)[C@H](CC(=O)O)NC(=O)[C@H](CO)NC(=O)[C@@H](NC(=O)[C@H](Cc1ccccc1)NC(=O)[C@@H](NC(=O)CNC(=O)[C@H](CCC(=O)O)NC(=O)C(C)(C)NC(=O)[C@@H](N)Cc1c[nH]cn1)[C@@H](C)O)[C@@H](C)O)C(C)C)C(C)C)C(=O)N[C@@H](C)C(=O)N[C@@H](Cc1c[nH]c2ccccc12)C(=O)N[C@@H](CC(C)C)C(=O)N[C@H](C(=O)N[C@@H](CCC(=O)O)C(=O)N[C@@H](CCCCN)C(=O)N[C@H](C(=O)N[C@@H](CCCCN)C(=O)NCC(=O)N[C@@H](Cc1ccccc1)C(=O)N[C@@H](CC(C)C)C(N)=O)C(C)C)C(C)C) [[Aib8,Glu23,Val25,Glu34,Lys35,Val36,Lys37]-GLP-1-(7-37)-peptidyl-Gly-Phe-Leu amide]",129 pM,32 pM
"H[Aib]EGTFTSDVSSYLEGEAVKEFIAWLVEKVKEEL-NH2 (N-terminus assumed; SMILES CC[C@H](C)[C@H](NC(=O)[C@H](Cc1ccccc1)NC(=O)[C@H](CCC(=O)O)NC(=O)[C@H](CCCCN)NC(=O)[C@@H](NC(=O)[C@H](C)NC(=O)[C@H](CCC(=O)O)NC(=O)CNC(=O)[C@H](CCC(=O)O)NC(=O)[C@H](CC(C)C)NC(=O)[C@H](Cc1ccc(O)cc1)NC(=O)[C@H](CO)NC(=O)[C@H](CO)NC(=O)[C@@H](NC(=O)[C@H](CC(=O)O)NC(=O)[C@H](CO)NC(=O)[C@@H](NC(=O)[C@H](Cc1ccccc1)NC(=O)[C@@H](NC(=O)CNC(=O)[C@H](CCC(=O)O)NC(=O)C(C)(C)NC(=O)[C@@H](N)Cc1c[nH]cn1)[C@@H](C)O)[C@@H](C)O)C(C)C)C(C)C)C(=O)N[C@@H](C)C(=O)N[C@@H](Cc1c[nH]c2ccccc12)C(=O)N[C@@H](CC(C)C)C(=O)N[C@H](C(=O)N[C@@H](CCC(=O)O)C(=O)N[C@@H](CCCCN)C(=O)N[C@H](C(=O)N[C@@H](CCCCN)C(=O)N[C@@H](CCC(=O)O)C(=O)N[C@@H](CCC(=O)O)C(=O)N[C@@H](CC(C)C)C(N)=O)C(C)C)C(C)C) [[Aib8,Glu23,Val25,Glu34,Lys35,Val36,Lys37]-GLP-1-(7-37)-peptidyl-Glu-Glu-Leu amide]",25 pM,16 pM
"H[Aib]EGTFTSDVSSYLEGEAVKEFIEWLVEKVKEKL-NH2 (N-terminus assumed; SMILES CC[C@H](C)[C@H](NC(=O)[C@H](Cc1ccccc1)NC(=O)[C@H](CCC(=O)O)NC(=O)[C@H](CCCCN)NC(=O)[C@@H](NC(=O)[C@H](C)NC(=O)[C@H](CCC(=O)O)NC(=O)CNC(=O)[C@H](CCC(=O)O)NC(=O)[C@H](CC(C)C)NC(=O)[C@H](Cc1ccc(O)cc1)NC(=O)[C@H](CO)NC(=O)[C@H](CO)NC(=O)[C@@H](NC(=O)[C@H](CC(=O)O)NC(=O)[C@H](CO)NC(=O)[C@@H](NC(=O)[C@H](Cc1ccccc1)NC(=O)[C@@H](NC(=O)CNC(=O)[C@H](CCC(=O)O)NC(=O)C(C)(C)NC(=O)[C@@H](N)Cc1c[nH]cn1)[C@@H](C)O)[C@@H](C)O)C(C)C)C(C)C)C(=O)N[C@@H](CCC(=O)O)C(=O)N[C@@H](Cc1c[nH]c2ccccc12)C(=O)N[C@@H](CC(C)C)C(=O)N[C@H](C(=O)N[C@@H](CCC(=O)O)C(=O)N[C@@H](CCCCN)C(=O)N[C@H](C(=O)N[C@@H](CCCCN)C(=O)N[C@@H](CCC(=O)O)C(=O)N[C@@H](CCCCN)C(=O)N[C@@H](CC(C)C)C(N)=O)C(C)C)C(C)C) [[Aib8,Glu23,Val25,Glu30,Glu34,Lys35,Val36,Lys37]-GLP-1-(7-37)-peptidyl-Glu-Lys-Leu amide]",163 pM,39 pM
"H[Aib]EGTFTSDVSSYLEGEAVKEFIAWLVEKVKEGL-NH2 (N-terminus assumed; SMILES CC[C@H](C)[C@H](NC(=O)[C@H](Cc1ccccc1)NC(=O)[C@H](CCC(=O)O)NC(=O)[C@H](CCCCN)NC(=O)[C@@H](NC(=O)[C@H](C)NC(=O)[C@H](CCC(=O)O)NC(=O)CNC(=O)[C@H](CCC(=O)O)NC(=O)[C@H](CC(C)C)NC(=O)[C@H](Cc1ccc(O)cc1)NC(=O)[C@H](CO)NC(=O)[C@H](CO)NC(=O)[C@@H](NC(=O)[C@H](CC(=O)O)NC(=O)[C@H](CO)NC(=O)[C@@H](NC(=O)[C@H](Cc1ccccc1)NC(=O)[C@@H](NC(=O)CNC(=O)[C@H](CCC(=O)O)NC(=O)C(C)(C)NC(=O)[C@@H](N)Cc1c[nH]cn1)[C@@H](C)O)[C@@H](C)O)C(C)C)C(C)C)C(=O)N[C@@H](C)C(=O)N[C@@H](Cc1c[nH]c2ccccc12)C(=O)N[C@@H](CC(C)C)C(=O)N[C@H](C(=O)N[C@@H](CCC(=O)O)C(=O)N[C@@H](CCCCN)C(=O)N[C@H](C(=O)N[C@@H](CCCCN)C(=O)N[C@@H](CCC(=O)O)C(=O)NCC(=O)N[C@@H](CC(C)C)C(N)=O)C(C)C)C(C)C) [[Aib8,Glu23,Val25,Glu34,Lys35,Val36,Lys37]-GLP-1-(7-37)-peptidyl-Glu-Gly-Leu amide]",11 pM,3 pM
